Tests used:
[1] = target: T1, Escherichia coli inclusion body-associated protein B (Escherichia coli, UniProt P0C058 1-142); experiment: co-sedimentation; sucrose density gradient centrifugation: IbpAEc (3 μM) and IbpBEc (7 μM) in buffer F incubated at room temperature for 30 min, 10% to 30% (w/v) sucrose gradient; SDS-PAGE with 6 M urea and CBB staining; details: both partners purified
T1 construct: Small heat shock protein IbpB of Escherichia coli; also called IbpBEc; His-IbpBEc; source: purified with Ni-NTA agarose upon denaturation by 6 M urea
T1 sequence (looked up): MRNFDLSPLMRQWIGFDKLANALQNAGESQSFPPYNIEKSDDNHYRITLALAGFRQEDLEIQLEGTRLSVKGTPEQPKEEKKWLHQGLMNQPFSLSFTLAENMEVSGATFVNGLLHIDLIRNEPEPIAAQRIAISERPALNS

[2] = target: the molecule itself; experiment: sucrose density gradient centrifugation; purified IbpA (3 μM, dimeric units) alone in buffer F (50 mM Hepes-KOH pH 7.6, 0.1 M KCl, 5 mM DTT, 20 mM Mg-acetate) on a 10% to 30% (w/v) sucrose gradient, SW 41 Ti, 35,000 rpm, 4 °C, 80 min; fractions by SDS-PAGE with Western blot (anti-IbpA) or CBB staining; oligomeric state

B1: Escherichia coli inclusion body-associated protein A, wild type (natural protein, UniProt P0C054 1-137, looked up)
chain: MRNFDLSPLYRSAIGFDRLFNHLENNQSQSNGGYPPYNVELVDENHYRIAIAVAGFAESELEITAQDNLLVVKGAHADEQKERTYLYQGIAERNFERKFQLAENIHVRGANLVNGLLYIDLERVIPEAKKPRRIEIN
notes: Small heat shock protein IbpA of Escherichia coli, expressed from pCA24N-ibpAEc; also called IbpAEc; IbpAEc-WT; source: E. coli BW25113ΔAB, overexpressed (0.5 mM IPTG), purified (anion exchange chromatography)
- binding result [1]: binds
- binding result [2]: binds

B2: Escherichia coli inclusion body-associated protein A, R93A mutant (natural protein, UniProt P0C054 1-137, looked up)
chain: MRNFDLSPLYRSAIGFDRLFNHLENNQSQSNGGYPPYNVELVDENHYRIAIAVAGFAESELEITAQDNLLVVKGAHADEQKERTYLYQGIAEANFERKFQLAENIHVRGANLVNGLLYIDLERVIPEAKKPRRIEIN
notes: Small heat shock protein IbpA of Escherichia coli with R93A, made by site-directed mutagenesis of pCA24N-ibpAEc; also called IbpAEc-R93A; IbpA-R93A; source: E. coli BW25113ΔAB, overexpressed (0.5 mM IPTG), purified (anion exchange chromatography)
- binding result [1]: binds
- binding result [2]: binds

Source: article PMC10474464, “The mRNA binding-mediated self-regulatory function of small heat shock protein IbpA in γ-proteobacteria is conferred by a conserved arginine” (The Journal of Biological Chemistry, 2023)
